In the supplement of paper PMC10567573:

B1: NP_006221.1 (parent)
chain: CQPISFSGFGAEDDDLGGLGLGP

Variants of: B1
Experiment: protein stability index of a GFP-peptide fusion (GPS, HEK-293T) (PSI 1-6); higher = more stable
Settings: c terminus: native
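Note: lentivirally expressed fusion library, cells FACS-sorted into six equal-sized GFP/DsRed ratio bins, PSI computed from sequencing read fractions per bin weighted by bin number.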

Going from CQPISFSGGGAEDDDLGGLGLGP to CVPISFSGFGAEDDDLGGLGLGP, the protein stability index falls from 3.01 to 1.98.

Going from CQPISFSGFGAEDDDLGGLGLAP to CQPISFSGFGAEDTDLGGLGLGP, the protein stability index falls from 2.29 to 2.18.

Going from CQPISFSGFGREDDDLGGLGLGP to CQPISFHGFGAEDDDLGGLGLGP, the protein stability index rises from 2.32 to 3.06.

Compared with CQPISFSGFGAEDDDLGGAGLGP, CQPISFSGFGAEDYDLGGLGLGP is lower in protein stability index: 2.72 for the first, 2.12 for the second.

Compared with CQPISFSGFGAEDDDLGGLGLSP, CQPISFNGFGAEDDDLGGLGLGP is higher in protein stability index: 2.1 for the first, 3.37 for the second.

First: CQPISFSGFGAEDDDLIGLGLGP
Second: CQPISFSGFGEEDDDLGGLGLGP
The protein stability index of the first is lower: 1.93 for the first, 2.02 for the second.

First: CQPISFSGEGAEDDDLGGLGLGP
Second: CQPISFSGFGAEDDDLGGLGLGL
The protein stability index of the first is lower: 2.98 for the first, 3.57 for the second.

Going from CQPISFSGMGAEDDDLGGLGLGP to CQPISFSGFGAEDDDLGGLGQGP, the protein stability index rises from 2.41 to 4.85.

Compared with CQPISFSGFGAEDDDSGGLGLGP, CQPISFSGFGAEDDDLGNLGLGP is lower in protein stability index: 2.28 for the first, 2.16 for the second.

First: CQPISFSGFGAEDDDLAGLGLGP
Second: CQPISFSGFGAEDDDTGGLGLGP
The protein stability index of the first is lower: 2.16 for the first, 2.35 for the second.

First: CQPISFSGFGAEDDDLGGLGLGK
Second: CQPISFSGAGAEDDDLGGLGLGP
The protein stability index of the first is higher: 4.66 for the first, 2.58 for the second.

Compared with CQPISFSGCGAEDDDLGGLGLGP, CQPISFSGFGAEDDLLGGLGLGP is higher in protein stability index: 2.36 for the first, 2.41 for the second.

First: CQPISFSGFGKEDDDLGGLGLGP
Second: CQPISFSGFGAEDDDLGGFGLGP
The protein stability index of the first is lower: 2.09 for the first, 2.51 for the second.

First: CQPCSFSGFGAEDDDLGGLGLGP
Second: CQPISFSVFGAEDDDLGGLGLGP
The protein stability index of the first is higher: 2.43 for the first, 2.16 for the second.

Going from LQPISFSGFGAEDDDLGGLGLGP to CQPISGSGFGAEDDDLGGLGLGP, the protein stability index rises from 1.97 to 4.16.

Compared with VQPISFSGFGAEDDDLGGLGLGP, CQPISFSGTGAEDDDLGGLGLGP is higher in protein stability index: 2.27 for the first, 2.7 for the second.

Going from CQPISFSGFGAEDDDLGALGLGP to CQPIDFSGFGAEDDDLGGLGLGP, the protein stability index rises from 2.13 to 2.69.

First: CQPISFSGFGAEDDDLGGLGMGP
Second: CQPISFSGFGATDDDLGGLGLGP
The protein stability index of the first is higher: 3.33 for the first, 2.06 for the second.

Going from CQPISFSGFGAEDWDLGGLGLGP to CQPISFSGFGAEHDDLGGLGLGP, the protein stability index falls from 2.48 to 2.2.

Going from CQPISESGFGAEDDDLGGLGLGP to CQPISHSGFGAEDDDLGGLGLGP, the protein stability index falls from 4.72 to 3.48.

First: CQPGSFSGFGAEDDDLGGLGLGP
Second: CQPISFSEFGAEDDDLGGLGLGP
The protein stability index of the first is higher: 2.29 for the first, 2.03 for the second.

Going from CQPIMFSGFGAEDDDLGGLGLGP to CQPISFSGFGAEDDDLGGLILGP, the protein stability index rises from 2.46 to 3.2.

Compared with CQPISFSGFGAEDGDLGGLGLGP, CQPISFSGQGAEDDDLGGLGLGP is higher in protein stability index: 2.13 for the first, 2.54 for the second.

Compared with CQPISFSGFIAEDDDLGGLGLGP, CQPISFSGFLAEDDDLGGLGLGP is higher in protein stability index: 2.08 for the first, 2.56 for the second.

First: CQPISFSGFGAEDDDLGGLGLGE
Second: CQPISFSGFRAEDDDLGGLGLGP
The protein stability index of the first is higher: 4.96 for the first, 2.21 for the second.

Compared with CYPISFSGFGAEDDDLGGLGLGP, CQPISFSGDGAEDDDLGGLGLGP is higher in protein stability index: 2.09 for the first, 3.32 for the second.

Going from CQPISFSGFGAMDDDLGGLGLGP to CQPISFSGFGAEDDDLGTLGLGP, the protein stability index falls from 2.25 to 2.23.

First: CQIISFSGFGAEDDDLGGLGLGP
Second: CQPISFSGFGAERDDLGGLGLGP
The protein stability index of the first is higher: 2.29 for the first, 2.04 for the second.

Compared with CQPISFSGFGAEDDGLGGLGLGP, CQPISFSGFGAEADDLGGLGLGP is lower in protein stability index: 2.57 for the first, 2.46 for the second.

Going from CQDISFSGFGAEDDDLGGLGLGP to TQPISFSGFGAEDDDLGGLGLGP, the protein stability index falls from 2.2 to 2.14.

Compared with CQPISFSGPGAEDDDLGGLGLGP, CQMISFSGFGAEDDDLGGLGLGP is lower in protein stability index: 3.23 for the first, 2.15 for the second.

Going from CQPISFSGFGTEDDDLGGLGLGP to CQPISFSGFGAEDDDLGGLPLGP, the protein stability index rises from 2.26 to 3.11.

Going from CQPISFSGFGDEDDDLGGLGLGP to CQPISFSGFGAEDDDLGGLGIGP, the protein stability index rises from 2.37 to 3.46.

Compared with CQPISFSGFGAEDKDLGGLGLGP, CQPISFSGFGAEQDDLGGLGLGP is lower in protein stability index: 2.46 for the first, 2.21 for the second.

Going from CQPISFSGFGAEDDDLGGLGLQP to CQPISFSGFGAEDDDLTGLGLGP, the protein stability index falls from 2.27 to 2.1.

First: CQPISFSGFGAEDHDLGGLGLGP
Second: CQPISFSGFGAEDDDLGQLGLGP
The protein stability index of the first is higher: 2.27 for the first, 2 for the second.

Going from CQPISFSSFGAEDDDLGGLGLGP to CQPISFVGFGAEDDDLGGLGLGP, the protein stability index falls from 2.15 to 2.07.

First: CQPISFSGFGAEDDDLGGLGTGP
Second: CQPISFSGFGAEDDDIGGLGLGP
The protein stability index of the first is higher: 3.94 for the first, 2.21 for the second.

Going from CQPISFSGFCAEDDDLGGLGLGP to CQPISFKGFGAEDDDLGGLGLGP, the protein stability index rises from 2.04 to 2.77.

Going from CQPISFSGFGAEDDRLGGLGLGP to CQPISFSGFGAEDCDLGGLGLGP, the protein stability index falls from 2.13 to 2.12.

Compared with CQPISFSGFGAEDDDLGGLGKGP, CQPISFIGFGAEDDDLGGLGLGP is lower in protein stability index: 3.95 for the first, 2.13 for the second.

Compared with CQPISFSGFGAEDDMLGGLGLGP, CQPISFSGFGAEDDDLGELGLGP is lower in protein stability index: 2.47 for the first, 2.42 for the second.

Compared with HQPISFSGFGAEDDDLGGLGLGP, CQPISFSGFGHEDDDLGGLGLGP is higher in protein stability index: 2.17 for the first, 2.37 for the second.

Going from CQPISFSGFGAEDDDLRGLGLGP to CQPISFSGNGAEDDDLGGLGLGP, the protein stability index rises from 1.52 to 2.87.

First: CQPIHFSGFGAEDDDLGGLGLGP
Second: CQPISFSGFGAELDDLGGLGLGP
The protein stability index of the first is higher: 2.42 for the first, 2.27 for the second.

Compared with CQPISFSGFGAEDDALGGLGLGP, AQPISFSGFGAEDDDLGGLGLGP is lower in protein stability index: 2.28 for the first, 2.11 for the second.

Compared with CQPISFSGFGAEDDDLGGPGLGP, KQPISFSGFGAEDDDLGGLGLGP is lower in protein stability index: 2.7 for the first, 2.06 for the second.

Compared with CQPISFSLFGAEDDDLGGLGLGP, CQPRSFSGFGAEDDDLGGLGLGP is higher in protein stability index: 1.97 for the first, 2.08 for the second.

CQPISFSGFGAEDDDLHGLGLGP showed a protein stability index of 2.17.
